Measured values taken from US20230390406A1, “Star Polymer Drug Conjugates” (Vaccitech North America, Inc., priority 2020, published 2023).

Assays:
[1] = small molecule, not polymer-bound; cited from earlier work
[2] = system: Compound AH, Ac-A′VB-AMC
[3] = system: Compound AI, Ac-A′SPVB-AMC
[4] = system: Compound AJ, Ac-A′SK(Ac)VB-AMC
[5] = system: Compound AL, Ac-A′SKSB-AMC
[6] = system: Compound AM, Ac-A′VnL-AMC
[7] = system: Compound AN, Ac-A′SPVnL-AMC
[8] = system: Compound AO, Ac-A′SK(Ac)SnL-AMC
[9] = system: Compound AP, Ac-A′SKSnL-AMC
[10] = system: Compound AK, Ac-A′SK(Ac)SB-AMC

Molecule	pKa [1]	cleavage of the peptide-AMC bond (HPLC, UV 350 nm, up to 6 hrs) [2]	cleavage of the peptide-AMC bond (HPLC, UV 350 nm, up to 6 hrs) [3]	cleavage of the peptide-AMC bond (HPLC, UV 350 nm, up to 6 hrs) [4]	cleavage of the peptide-AMC bond (HPLC, UV 350 nm, up to 6 hrs) [5]	cleavage of the peptide-AMC bond (HPLC, UV 350 nm, up to 6 hrs) [6]	cleavage of the peptide-AMC bond (HPLC, UV 350 nm, up to 6 hrs) [7]	cleavage of the peptide-AMC bond (HPLC, UV 350 nm, up to 6 hrs) [8]	cleavage of the peptide-AMC bond (HPLC, UV 350 nm, up to 6 hrs) [9]	cleavage of the peptide-AMC bond (HPLC, UV 350 nm, up to 6 hrs) [10]
CC(C)(CCN)C(=O)O [DMBA, 4-amino-2,2-dimethylbutanoic acid]	about 4.8									
cathepsin B (Sino Biological, protein human recombinant)		found to be metabolized quickly in the presence of cathepsin B as well as mouse plasma	found to be metabolized quickly in the presence of cathepsin B as well as mouse plasma	Compound AJ was relatively stable in both matrices	showed significant stability in mouse plasma, but were readily cleaved in the presence of human cathepsin	found to be metabolized quickly in the presence of cathepsin B as well as mouse plasma	found to be metabolized quickly in the presence of cathepsin B as well as mouse plasma	showed significant stability in mouse plasma, but were readily cleaved in the presence of human cathepsin	showed significant stability in mouse plasma, but were readily cleaved in the presence of human cathepsin	showed significant stability in mouse plasma, but were readily cleaved in the presence of human cathepsin
